Article PMC3514216, “SRC Homology 2 Domain Binding Sites in Insulin, IGF-1 and FGF receptor mediated signaling networks reveal an extensive potential interactome” (Cell Communication and Signaling : CCS, 2012)
Non-standard residues stand in square brackets, D forms with d. No end group written: not given here. pY = N[C@@H](Cc1ccc(OP(=O)(O)O)cc1)C(=O)O

Tests used:
Conditions in all cases: both partners purified
GST-Abl1 SH2 domain = target: T1, GST-Abl1 SH2 domain (human, UniProt P00519 127-217); test: fluorescence polarisation; Rhodamine B-labelled peptide in solution with SH2 domain; Beacon 2000; as previously described [40]
T1 construct: SH2 domain of Abl1; source: E. coli BL21, purified (glutathione sepharose, NAP-10)
T1 sequence (looked up): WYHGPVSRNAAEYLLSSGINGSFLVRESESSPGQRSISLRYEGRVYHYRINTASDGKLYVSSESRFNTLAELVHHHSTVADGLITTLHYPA

GST-Grb2 SH2 domain = target: T2, GST-Grb2 SH2 domain (human, UniProt P62993 60-152); test: as above
T2 construct: SH2 domain of Grb2; source: E. coli BL21, purified (glutathione sepharose, NAP-10)
T2 sequence (P62993 60-152): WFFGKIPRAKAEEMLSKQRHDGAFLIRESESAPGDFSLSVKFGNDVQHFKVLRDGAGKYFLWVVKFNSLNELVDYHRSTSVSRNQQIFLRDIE

GST-CrkL SH2 domain = target: T3, GST-CrkL SH2 domain (human, UniProt P46109 14-102); test: as above
T3 construct: SH2 domain of CrkL; source: E. coli BL21, purified (glutathione sepharose, NAP-10)
T3 sequence (P46109 14-102): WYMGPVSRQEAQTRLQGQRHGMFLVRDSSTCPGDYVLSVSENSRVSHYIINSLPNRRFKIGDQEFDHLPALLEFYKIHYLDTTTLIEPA

GST-Src SH2 domain = target: T4, GST-Src SH2 domain (human, UniProt P12931 151-248); test: as above
T4 construct: SH2 domain of Src; source: E. coli BL21, purified (glutathione sepharose, NAP-10)

GST-Yes SH2 domain = target: T5, GST-Yes SH2 domain (human, UniProt P07947 158-255); test: peptide or protein array; SPOT array of 192 membrane-bound 11-mer phosphotyrosine peptides; GST-SH2 0.25 uM in TBS-T with 5% nonfat milk and 1 mM DTT, 1.5 h, room temperature; anti-GST and Alexa-Fluor-680 secondary, Li-Cor Odyssey; array positive >3X the array mean, array negative <1X, indeterminate between
T5 construct: SH2 domain of the kinase Yes; source: E. coli BL21, purified (glutathione sepharose, NAP-10)
T5 sequence (P07947 158-255): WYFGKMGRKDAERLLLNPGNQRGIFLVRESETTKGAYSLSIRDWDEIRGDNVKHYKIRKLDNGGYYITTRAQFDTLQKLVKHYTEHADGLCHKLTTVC

GST-Crk SH2 domain = target: T6, GST-Crk SH2 domain (human, UniProt P46108 13-118); test: fluorescence polarisation; Rhodamine B-labelled peptide in solution with SH2 domain; Beacon 2000; as previously described [40]
T6 construct: SH2 domain of Crk; source: E. coli BL21, purified (glutathione sepharose, NAP-10)
T6 sequence (P46108 13-118): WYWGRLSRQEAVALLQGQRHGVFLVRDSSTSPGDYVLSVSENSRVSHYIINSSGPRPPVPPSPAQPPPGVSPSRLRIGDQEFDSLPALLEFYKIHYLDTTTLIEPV

GST-Vav1 SH2 domain = target: T7, GST-Vav1 SH2 domain (human, UniProt P15498 671-765); test: as above
T7 construct: SH2 domain of Vav1; source: E. coli BL21, purified (glutathione sepharose, NAP-10)
T7 sequence (looked up): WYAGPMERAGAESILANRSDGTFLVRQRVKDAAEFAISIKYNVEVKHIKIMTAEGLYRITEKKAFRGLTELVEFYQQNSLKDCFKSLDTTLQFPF

GST-Nck1 SH2 domain = target: T8, GST-Nck1 SH2 domain (human, UniProt P16333 282-376); test: as above
T8 construct: SH2 domain of Nck1; source: E. coli BL21, purified (glutathione sepharose, NAP-10)

GST-Shc1 SH2 domain = target: T9, GST-Shc1 SH2 domain (human, UniProt P29353 488-579); test: as above
T9 construct: SH2 domain of Shc1; source: E. coli BL21, purified (glutathione sepharose, NAP-10)
T9 sequence (looked up): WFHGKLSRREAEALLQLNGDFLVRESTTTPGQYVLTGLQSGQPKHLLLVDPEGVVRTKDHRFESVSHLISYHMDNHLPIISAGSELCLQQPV

GST-Ship2 SH2 domain = target: T10, GST-Ship2 SH2 domain (human, UniProt O15357 21-117); test: as above
T10 construct: SH2 domain of Ship2; source: E. coli BL21, purified (glutathione sepharose, NAP-10)
T10 sequence (looked up): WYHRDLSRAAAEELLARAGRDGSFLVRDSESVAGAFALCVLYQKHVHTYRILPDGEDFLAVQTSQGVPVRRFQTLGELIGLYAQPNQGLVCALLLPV

GST-Abl2 SH2 domain = target: T11, GST-Abl2 SH2 domain (human, UniProt P42684 173-263); test: as above
T11 construct: SH2 domain of Abl2; source: E. coli BL21, purified (glutathione sepharose, NAP-10)
T11 sequence (looked up): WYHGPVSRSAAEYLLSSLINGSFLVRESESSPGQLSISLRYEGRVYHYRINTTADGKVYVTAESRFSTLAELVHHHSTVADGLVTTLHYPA

GST-Fgr SH2 domain = target: T12, GST-Fgr SH2 domain (human, UniProt P09769 144-241); test: as above
T12 construct: SH2 domain of Fgr; source: E. coli BL21, purified (glutathione sepharose, NAP-10)

GST-Itk SH2 domain = target: T13, GST-Itk SH2 domain (human, UniProt Q08881 239-338); test: as above
T13 construct: SH2 domain of Itk; source: E. coli BL21, purified (glutathione sepharose, NAP-10)
T13 sequence (looked up): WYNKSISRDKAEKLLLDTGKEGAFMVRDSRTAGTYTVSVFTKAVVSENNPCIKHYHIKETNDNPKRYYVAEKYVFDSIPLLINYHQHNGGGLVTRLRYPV

GST-Sh3bp2 SH2 domain = target: T14, GST-Sh3bp2 SH2 domain (human, UniProt P78314 457-555); test: as above
T14 construct: SH2 domain of Sh3bp2; source: E. coli BL21, purified (glutathione sepharose, NAP-10)
T14 sequence (looked up): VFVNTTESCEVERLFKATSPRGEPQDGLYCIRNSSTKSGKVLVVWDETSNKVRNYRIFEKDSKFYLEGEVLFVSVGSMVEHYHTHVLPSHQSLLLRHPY

GST-Brk SH2 domain = target: T15, GST-Brk SH2 domain (human, UniProt Q13882 78-170); test: as above
T15 construct: SH2 domain of Brk; source: E. coli BL21, purified (glutathione sepharose, NAP-10)
T15 sequence (Q13882 78-170): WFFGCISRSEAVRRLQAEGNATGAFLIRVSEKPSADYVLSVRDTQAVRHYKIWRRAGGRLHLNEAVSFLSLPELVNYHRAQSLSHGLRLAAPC

GST-Fer SH2 domain = target: T16, GST-Fer SH2 domain (human, UniProt P16591 460-550); test: as above
T16 construct: SH2 domain of Fer; source: E. coli BL21, purified (glutathione sepharose, NAP-10)
T16 sequence (P16591 460-550): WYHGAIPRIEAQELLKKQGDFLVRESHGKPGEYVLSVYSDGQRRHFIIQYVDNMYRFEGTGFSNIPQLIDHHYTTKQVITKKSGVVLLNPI

GST-Sh2b SH2 domain = target: T17, GST-Sh2b SH2 domain (human, UniProt Q9NRF2 527-625); test: as above
T17 construct: SH2 domain of Sh2b; source: E. coli BL21, purified (glutathione sepharose, NAP-10)

GST-Tenc1 SH2 domain = target: T18, GST-Tenc1 SH2 domain (human, UniProt Q63HR2 1140-1247); test: as above
T18 construct: source: E. coli BL21, purified (glutathione sepharose, NAP-10)
T18 sequence (looked up): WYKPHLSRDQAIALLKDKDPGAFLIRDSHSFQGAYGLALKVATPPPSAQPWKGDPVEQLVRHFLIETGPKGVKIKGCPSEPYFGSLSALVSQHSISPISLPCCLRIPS

GST-Sh2d1b SH2 domain = target: T19, GST-Sh2d1b SH2 domain (human, UniProt O14796 5-101); test: as above
T19 construct: SH2 domain of Sh2d1b (Eat-2); also called Eat-2; source: E. coli BL21, purified (glutathione sepharose, NAP-10)
T19 sequence (looked up): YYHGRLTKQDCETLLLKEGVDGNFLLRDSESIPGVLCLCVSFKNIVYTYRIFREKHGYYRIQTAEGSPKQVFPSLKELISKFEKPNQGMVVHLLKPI

GST-Shb SH2 domain = target: T20, GST-Shb SH2 domain (human, UniProt Q15464 410-504); test: as above
T20 construct: SH2 domain of Shb; source: E. coli BL21, purified (glutathione sepharose, NAP-10)
T20 sequence (Q15464 410-504): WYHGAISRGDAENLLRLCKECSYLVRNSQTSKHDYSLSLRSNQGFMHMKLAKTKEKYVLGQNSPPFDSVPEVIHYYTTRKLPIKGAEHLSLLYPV

Binder | Kd (GST-Abl1 SH2 domain) | Kd (GST-CrkL SH2 domain) | Kd (GST-Src SH2 domain) | Kd (GST-Crk SH2 domain) | Kd (GST-Nck1 SH2 domain) | Kd (GST-Abl2 SH2 domain) | also measured
NGLN[pY]IDLDLV (not fully specified (N-terminus); also: Rhodamine B label, site not given here, IRS-1 around Y1179; source: synthetic peptide (FMOC chemistry), purified by LC/MS) [IRS-1 (Y1179) phosphopeptide NGLNpYIDLDLV, Rhodamine B-labelled] | 22.2 µM | > 50 µM | 9.94 µM | – | – | – | Kd (GST-Grb2 SH2 domain): > 50 µM
EQDE[pY]DIPRHL (also: membrane-bound on SPOT array, p130Cas (BCAR1) around Y234; source: synthetic peptide, SPOT synthesis on cellulose membrane) [p130Cas (Y234) peptide EQDEYDIPRHL, SPOT array] | – | – | – | – | – | – | binding result (GST-Yes SH2 domain): binds
GVSE[pY]ELPEDP (not fully specified (N-terminus); also: Rhodamine B label, site not given here, FGFR1 around Y463; also called FGFR1 pY-463; source: synthetic peptide (FMOC chemistry), purified by LC/MS) [FGFR1 (Y463) phosphopeptide GVSEpYELPEDP, Rhodamine B-labelled] | – | > 50 µM | 6.85 µM | 44 µM | 2.45 µM | – | Kd (GST-Vav1 SH2 domain): 1.87 µM
AEDV[pY]DVPPPA (not fully specified (N-terminus); also: Rhodamine B label, site not given here, p130Cas (BCAR1) around Y362; source: synthetic peptide (FMOC chemistry), purified by LC/MS) [p130Cas (Y362) phosphopeptide AEDVpYDVPPPA, Rhodamine B-labelled] | – | 0.99 µM | – | 0.35 µM | 0.93 µM | 14 µM | Kd (GST-Shc1 SH2 domain): 32.8 µM; Kd (GST-Ship2 SH2 domain): 16.5 µM
KEEG[pY]ELPYNP (not fully specified (N-terminus); also: Rhodamine B label, site not given here, p62DOK1 around Y398; source: synthetic peptide (FMOC chemistry), purified by LC/MS) [p62DOK1 (Y398) phosphopeptide KEEGpYELPYNP, Rhodamine B-labelled] | 5.77 µM | – | 5.06 µM | 23.7 µM | 4.37 µM | 3.47 µM | Kd (GST-Fgr SH2 domain): 2.04 µM; Kd (GST-Shc1 SH2 domain): 5.74 µM; Kd (GST-Itk SH2 domain): 5.43 µM; Kd (GST-Sh3bp2 SH2 domain): 1.68 µM; Kd (GST-Vav1 SH2 domain): 4.73 µM; Kd (GST-Brk SH2 domain): 0.42 µM; Kd (GST-Fer SH2 domain): 13.3 µM
SPGE[pY]VNIEFG (also: Rhodamine B label, site not given here, IRS-1 around Y896; source: synthetic peptide (FMOC chemistry), purified by LC/MS) [IRS-1 (Y896) phosphopeptide SPGEpYVNIEFG, Rhodamine B-labelled] | 7.48 µM | – | 2.21 µM | > 20 µM | – | 3.66 µM | Kd (GST-Sh2b SH2 domain): 3.58 µM; Kd (GST-Grb2 SH2 domain): 0.8 µM; Kd (GST-Tenc1 SH2 domain): 24 µM
STDE[pY]LDLSAP (also: Rhodamine B label, site not given here, FGFR3 around Y760; source: synthetic peptide (FMOC chemistry), purified by LC/MS) [FGFR3 (Y760) phosphopeptide STDEpYLDLSAP, Rhodamine B-labelled] | – | – | – | – | – | 27 µM | Kd (GST-Sh2d1b SH2 domain): 5.3 µM; Kd (GST-Shb SH2 domain): > 50 µM
